According to the nanobody polyreactivity screen of Harvey et al. (2022):

Test: yeast display, Sf9 membrane polyspecificity reagent, FACS + sequencing; frameworks hold sequencing errors
How it was run: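 In a synthetic yeast display library (Saccharomyces cerevisiae BJ5465), nanobody expression was induced with galactose for 36–48 hours. FACS gates were set low and high (top ~1%) using anti-HA fluorescence for expression and streptavidin fluorescence for binding of the Sf9 membrane reagent. Each polyreactivity label is drawn from the gate of origin.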

Sequence	polyreactivity (PSR sort gate)
QVQLVESGGGLVQAGGSLRLRCAASGYTFRGNAMAWYSQAPGKERDLVAGISQTGGNTYYADSVKGRFTISRDNAKNTVYLQMNSLKPEDTAVYYCATTRRPYVRGYPHYYWGQGTEVTVSS	high polyreactivity
QVQLVESGGGLVQAGGSLRLRCASSGGIFVPYAMGWYRQAPGKERELVAGITSGGSTNYADSVKGRFSISRDNAKNTVYLQMNRLKPEDTAVYYCAARRRPGGRYKSRVWYDYWGLGTQVTVSS	high polyreactivity
QVQLVESGGGLVQAGGSLRLRGAASGSIFVYYAMGWYRPAPGKERELVASISESDGSTSYADSVKGRFTISRDNAKNTVYLQMNSLKPEDTAVYYCAADPYFYWYSPSFDYWGQGTQVTVSS	low polyreactivity
QVQLVESGGGLVQAGGSLRLRSAASGGTIARYAMGWYRQATGKERELVAAITKSRDLTYYADSVKGRFTISRDSAKNTVYLQMNSLKPEDTAVYYCARPPSTGYQGGYDYWGQGTQVTVSS	high polyreactivity
QVQLVESGGGLVQAGGSLRLSCAAAGIIFISYDMGWYRPAPGKDRELVARINWDGGSTYYADSVKGRFTISRDKAKHTFYLQTNTLKPEDTAVSYCAAGFVGTNYPLQGFSYEYWGPGTQVTVSS	low polyreactivity
QVQLVESGGGLVQAGGSLRLSCAAAGITFKWNAMGWYRQAPGKERELVAVISSDGRTYYADSVKGRFTSSRDNAKNTVYLQMNSLKPEDTAVYYCARSHSYYPAGPYYYWGQGTQVTVSS	low polyreactivity
QVQLVESGGGLVQAGGSLRLSCAAAGITLYRYVMGWYRQAPGKERELVADISGRGTSTYYADSEKGRFTISRDNAKNTVYLQMNSLKPEDTAVYYCNAEYTKTGALVIPYTYYYAEDYWGQGTQVTVSS	low polyreactivity
QVQLVESGGGLVQAGGSLRLSCAAAGLIFSAYAMGWYRQAPGKEREVVAAISRSGGITYYADSVKGRFTISRDNAKNTVYLQMISLKPEDTAVYYCNARWYDPTLKFGYWGQGTQVTVSS	high polyreactivity
QVQLVESGGGLVQAGGSLRLSCAAAGSIFGDYVMGWYRQAPGKERELVPANTSATSTYYADSVKGRFTISRDNAKNTVYLQMNSLKPEDTAVYYCNADATYPLWPNIWYDYDYWGQGTQVTVSS	low polyreactivity
QVQLVESGGGLVQAGGSLRLSCAAAGSIFGSYAMGWSRQAPGKERELVPAINSGGATIYSDSVKGRFTISRDNAKNTVYLQMNSLKPEDTAVYYCNAPGRRFNRYGGDYWGQGTQVTVSS	high polyreactivity
QVQLVESGGGLVQAGGSLRLSCAAAGSIFVWYVMGWYRQAHGKEMELVAAITWSAARTYYADSVKGRFTISRDNAKNTVYLLMNSLKPEDTAVYYCAADHVSYQPSSRIFDYWGQGTQVTVSS	low polyreactivity
QVQLVESGGGLVQAGGSLRLSCAAAGSTFLRNALGWSRPAPGKKVSWVATISYDGDSTYYADSVKGRFTISRDNAKNTVYLQMNSLKPEDTAVYYCAASYSLTFWDKDDYWGQGTQVTVSS	low polyreactivity
QVQLVESGGGLVQAGGSLRLSCAAAGSTFRYYAMGWYRHAPGKDRELVAAITSGGNTYNADSVKGRFTISRDNAKNTVYLLMNSLKPEDTAVYYCAAVGYLKYDNWGQGTQVTVSS	low polyreactivity
QVQLVESGGGLVQAGGSLRLSCAAAGTTFSHNTMGWYRQAPGKERELVAAITSGGTTYYADSVKGRFTISRDNAKNTVYLQMMSLKPEDTAVYYCAALRPRGGYYYWGQGTQVTVSS	high polyreactivity
QVQLVESGGGLVQAGGSLRLSCAACGLTFGGYVMGWYRQAPGKVRELVAAISGSGGRTYYADSVKGRFTISRDNAKNTVYLQMNSLKPEDTAVYYCARPSRGPPRGYYWGKGTQVTVSS	high polyreactivity
QVQLVESGGGLVQAGGSLRLSCAACGNIFGPYAMGWYRQAPGKERELVAAISFTGVSTYYADSVKGRFTISRDNAKNTVYLQMNSLKPEDTAVYYCSYYRSSTYYYWGQGTQVTVSS	high polyreactivity
QVQLVESGGGLVQAGGSLRLSCAACGNTFYWNAMGLYRQAPGKERELVAAISTTGVSTYYADSVKGRFTISRDNAKNTVYLQMNSLKPEDTAVYYCAAEIIGYHTIYDYWGQGTQVTVSS	low polyreactivity
QVQLVESGGGLVQAGGSLRLSCAACGRTFRGYAMGWYRQAPGKERELVAAITSGGSTYYADSVKGRFTISRDNAKNTDFLEMNSLKPEDTAVYYCNKLYYSGKPRFRYDYWGQGTQVTVSS	high polyreactivity
QVQLVESGGGLVQAGGSLRLSCAACGSIFIGNAMGWYRQAPGKERELVAVISKGGGRTYYADSVKGRFTISRDNAKNTVYLKMNSLKPEDTAVYFCNTRNPESGDYWGQGTQVTVSS	high polyreactivity
QVQLVESGGGLVQAGGSLRLSCAACGSIFRRYAMGWYRQAPGKERELVASIRGGGGTYYADSVKGRFTISRDNAKNTVYLQMNSLKPEDTAVYYCAATRYLAYFRKSFYYWGQGTQVTVSS	high polyreactivity
QVQLVESGGGLVQAGGSLRLSCAACGSTFLYYAMGWYRQAPGKERELVAGISWDGTSTYYADSVKGRFTISRDNAKNSVYLQMNSLKPEDTAVYYCAAFGWSRVYHWRFEWGQGTQVTVSS	low polyreactivity
QVQLVESGGGLVQAGGSLRLSCAACGSTFYGHAMGWYRQAPGKRELVAAITWSGGSTYYADSVKGRFTISRDNAKNTVYLQMNSLKPEDTAVYYCAADRRNNNGASGTRLDYWGQGTQVTVSS	low polyreactivity

Sequence	polyreactivity (PSR sort gate)
QVQLVESGGGLVQAGGSLRLSCAAPGSIFPRYAMGWYRQAPGKERELVAAISRSGGSTYYADSVKGRFTISRDNAKNTVSLQRNSLKPEDTAVYYCATDKVSHRRYDYWGQGTQVTVSS	high polyreactivity
QVQLVESGGGLVQAGGSLRLSCAASAFIFIIYAMGWYRQAPGKERELVAGIRWSGGSTYYADSVKGRFTISRDNAKNTVYLQMNSLKQEDTAVYYCNKDRGSLTLYTYDYWGQGTQVTVSS	low polyreactivity
QVQLVESGGGLVQAGGSLRLSCAASAFTFGYYAMGWYIQAPGKERELVAAISSGGNTNYADSVKGRFTISRDNAKNTVYLQMNSLKPEDTAVYYCNRRSWRYYKTYSAFNYWGQGSQVTVSS	high polyreactivity
QVQLVESGGGLVQAGGSLRLSCAASAFTFQNYAMGWYRQAPGKERELVAAIDSRGGRTYYADSVKGRFTISRDNAKNTVYLQMNSLKPEDTADDYCAVAENSRFGSVGYYYWGQGTQVTVSS	low polyreactivity
QVQLVESGGGLVQAGGSLRLSCAASAGTFNHYAMGWSRQEPGKERELVASITNGASTYYADSVKGRFTISRDNAKNTVYLQMNILKPEDTAVYYCAKRGRVGKYRYEYWGQGTLVTVSS	low polyreactivity
QVQLVESGGGLVQAGGSLRLSCAASAIIFRFYAMGWYRQAPGKERELVPAISSGGSTYYADSVKGRFTISRDNAKNTVYLQMNSLKPEDTAVYYCNARVRYKRTGRYGYWGQGTQVTVSS	high polyreactivity
QVQLVESGGGLVQAGGSLRLSCAASALTFRVYAMGWYRQAPGKERELVAAISFSGSSTFYADSVKGRFTISRDNAKNTVYLQMNSMKPEDTAVYYCAAGASEAVDVYDYWGQGTQVTVSS	low polyreactivity
QVQLVESGGGLVQAGGSLRLSCAASARTFSAYAMGWYRPAPGKERELVARITSVDSTNYADSVKGRFTISRDNAKNTVYLQMNSLKPEDTAVYYCNATFGYPFVDYDDYWGQGTQVTVSS	low polyreactivity
QVQLVESGGGLVQAGGSLRLSCAASARTFWAYAMGWYRQATGKEREWVAAITSSGTRTYYADSVKGRFTISRDNAKNTVYLKMNSLKPEDTAGYYCAAERIWLAHAYPTYVANDYWGQGTQVTVSS	high polyreactivity
QVQLVESGGGLVQAGGSLRLSCAASASIFAYNAMGWYRQAPGKERELVAAISYSGASTYYADSVKGRFTISRDYAKNTVYLQMNSLKPEDTAVYYCAATSRRRGTKGYWQVWPRFDYWGQGTQVTVSS	high polyreactivity
QVQLVESGGGLVQAGGSLRLSCAASASIFYIYAKGSYRQAPGKARELVAVIRNGGRTNYADSVKGRFTISRDNAKNTVYFQMNSLKPEDTAVYYCAARPRHVTRFDYWGQGTQVTVSS	high polyreactivity
QVQLVESGGGLVQAGGSLRLSCAASASIYPYAMGWYRQAPGKERELVAAITRSGASTYYADSVKGRFTISRDNAKNTVYLQMNSMKPEDTAVYYCAAYALRGVRYPYRVDFYYWGQGTQVTVSS	high polyreactivity
QVQLVESGGGLVQAGGSLRLSCAASASNIIGYAMGWYRQAPGKERELVAAITSGSITNYADSVKGRFTISRDTAKNTVYLQMNSLKPEDTAVYYCNADVNFIDDDYWGQGTQVTVSS	low polyreactivity
QVQLVESGGGLVQAGGSLRLSCAASASTFAGYVMGWYRPAPGKERELVAAISVSGGSTDYADSVKGRFTISRDNAKNTVYLQMNSLKPEDTAVYYCAAVYVRNQWWRNYYWGQGTQVTVSS	low polyreactivity
QVQLVESGGGLVQAGGSLRLSCAASASTFYLYAMGWYRQAPGKERELVAAISRGGTTYYADSVKGRFTISRDNEKNSVYLQMNSLKPEDTAVYYCNKLRRYSEYNADYGDYWGQGTQVTVSS	high polyreactivity
QVQLVESGGGLVQAGGSLRLSCAASASTIIRNAMGWYRQAPGKERELVAAISTSGGRTHYADSVKGRFTISRDNAKNTVYLQMNSLKPEDTAVYYCDTRGKGHYYYWGQGTQVTVSS	high polyreactivity
QVQLVESGGGLVQAGGSLRLSCAASDTPSSSMLMGWYRQAPGKERELVAAISGSDGTTYYADSVKVRFTISRDNAKNTVYLQMNSLKPEDTAVYYCAADDRVYSGYIKDDYWGQGTQVTVSS	low polyreactivity
QVQLVESGGGLVQAGGSLRLSCAASGAIFDSNAMGWYREAPGTERELVASIDRGGDTNYADSVKGRFTISRDNAKNTVYLQMNSLKPEDTAVYYCAAYYYKWVWIGMDYWGQGTQVTVSS	low polyreactivity
QVQLVESGGGLVQAGGSLRLSCAASGAIFELNAMGWYRQAPGKERELVAAIRWRTGRTYYADSVKGRFTISRDNAKNTVYLQMNSLKPEDTAVYYCAAPVRSGVRYTLDYWGQGTQVTVSS	high polyreactivity
QVQLVESGGGLVQAGGSLRLSCAASGAIFFSYAMGWYRQAPGKERELVAAIRTNGGTTYYADSVKGRFTISRDNAKNTVYLQMNSLKPEDTAVYYCAALPGGYYDRGEYDYWGQGTQVTVSS	low polyreactivity
QVQLVESGGGLVQAGGSLRLSCAASGAMGWYRQAPGKERELVAAITQSGGSTRYADSVKGRFTISRDNAKNTVYLQMNSLKPEDTAVYYCKAEDPREWDPYYQDGFDFWGQGTQVTVSS	low polyreactivity
